Measurements published in the nanobody polyreactivity screen of Harvey et al. (2022).

Test: yeast display, Sf9 membrane polyspecificity reagent, FACS + sequencing; frameworks hold sequencing errors
In short: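 After 36–48 hours of galactose induction, yeast (Saccharomyces cerevisiae BJ5465) displaying a synthetic nanobody library were stained at 4 °C for 1 hour with 10% biotinylated, detergent-solubilized Sf9 membrane reagent. Streptavidin microbeads enriched the stained cells before FACS sorting into low and high (top ~1%) gates on anti-HA and streptavidin fluorescence. Each clone's polyreactivity label reflects its gate of origin.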

| Sequence | polyreactivity (PSR sort gate) |
| --- | --- |
| QVQLVVSGGGLVQAGGSLRISCAASGITFGRYAMGRYRPAPGKERELVAAISWSGGSTYYADSVKGRFTISRDNAKNTVFLQMNSLKPEDTAVYYCALEWYYTSYHIRFYRDNYWGQGTQVTVSS | high polyreactivity |
| QVQLVESGGGLVQAGGSLRLSCAASGRIFYHYAMGWYRQAPGKERELVATIRRRGSSTYYADSVKGRFTISRDNAKNTVYLQMNSLKPEDTAVYYCAAGPTTNRYNYWGQGTQVTVSS | high polyreactivity |
| QVQLVESGGGLVQAGGSLRLSCAASGRTFAFYAMGWYRQAPGKERELVASIRGGGGTNYADSVKGRFTISRDNAKNTVYLQMNSLKTEDTAVYYCAARGYGYRGYYYWGQGTQVTVSS | high polyreactivity |
| QVHLVESGGGLVQAGGSLRLSSAASGRIFSFNAMGWYREAPGKERELVAAISWSNGSTFYADSVKGRFTISRDNAKNTVYLQMNSLKPEETAVYYCATGFPHPKRNVNRRNYWGQGTQVTVSS | high polyreactivity |
| QVQLVESGGGLVQAGGSLRLSCAASGFIFRYYAMGWYRQAPGKERELVAAISWSGSRTYYADSVKGRFTISRDNAKNTVYVQMNSLKPEDTAVYYCAADGNVGVTKGRFDYWGQGTQVTVSS | high polyreactivity |
| QVQLVESGGGLVQAGGSLRLSCAASGIIFYYYGMGWYRQAPGKEREFVAAISTSGGNTYYADSVKGRFTISRDNAKNTVYLQMNSLKPEDTAVYYCAADDLAWGDAGVDYWGQGTEVTVSS | low polyreactivity |
| QVQLVESGGGLVQAGGSLRLSCAASGSIFTYYVMGWYRQAPGKERELVAAITRSGGRTYYADSVKGRFTISRDNAKNTVYLQMNSLKPEDTAVYYCAARKYTGSGSRYYYWGQGTQVTVSS | high polyreactivity |
| QVQHVESGGALVQAGGSHRLSCAASGLTIWRYAKGWYRLATGKERELVAAINYNGVRTYYADSVKGRFTISRDNAKNTVYLQMNSLKQEDTAVYYCAAKPGYYGYWGQGTQVTVSS | high polyreactivity |
| QVQLVESGGGLVQAGGSLRLICAASGYTFKIKGMGWYRQAPGKERELVATIRAGGGNTYYADSVKGRFTISRDNAKNTVYLQMNSLKPEDTAVYYCNARYLRRTMEYWGQGTQVTVSS | high polyreactivity |
| QVQLVESGGGLVQAGGSLRLSCAASGSTFNWDAMGWYRQAPGQERELVAAISKSGGTTYYADSVKGRFTISRDNAKNTVYLQMNSLKPEDTAVYYCAAVRRYHSYPDGGYWGQGTQVTVSS | high polyreactivity |
| QVQLVESGGGLVQAGGSLRLSCAASGRIFRYYAMGSYRQAPGKERELVAAISRSGGSTYYADSVKGRFTISRDNAKNTVYLQMNSLKPEDTAVYSCAARLAGRGSSSSRVVRTGGYWGQGTQVTVSS | high polyreactivity |
| QVQLVESGGGLVQAGGSLRLSCAASGSTFIGYAMGWYRQAPGKERELVAAISRSDGSTYYADSVKGRFTISRDNAKNTVYLQMNSLKPEDTAVYYCNADYYRWYDYWGQGTQVTVSS | low polyreactivity |
| QVQLVESGGGLVQAGGSLRLSCAASGDIYDAYAMGWYRQAPGKERELVAAISRSGGSTYYSDSVKGRFTISRDNAKNTVYLLMNSLKPEDTAVYYCATRFSRRYVRYDYWGQGTQVTVSS | high polyreactivity |
| QVQLVESGGGLVQAGRSLRLSCASSGSPFDPYGKGRYRQAPGKEWEWVAAITASGRTNYADSVKGRFTISRDTAKNTVYLQMNSLKPEDTAFYYCATRKELYFYRGYEYWGQGTQVTVSS | low polyreactivity |
| QVQLVESGGGLVQALGSLRLSCVASGSTYDAYDMGWYREAPGKERELVAAITSGGSTYYADSVKGRFTISRDNAKNTVYLQMNSLKPEDTAVYYCAASNQWSSTYLTYGFYYWGQGTQVTVSS | low polyreactivity |
| QVQLVESGGCLVQAGGSLRLSCAASGRTFYPYAMGWYRQAPGQDRELVAAIRSSGGTTYYADSVKGRFTISRDNAKNTVYLQMNSLKREDTAVYYCAAFVDRQGGYYWGQGTQVTVSS | high polyreactivity |

| Sequence | polyreactivity (PSR sort gate) |
| --- | --- |
| QVQLVESGGGLVQAGGSLRLSCAASGSIFLGNAMGWYRQAPGKERELVAGITNGDNTNYADSVKGRFTISRDNAKNTDYLQMNSLKPEDTAVYYCATGPYLIYDYWGQGTQVTVSS | low polyreactivity |
| QVQLVESGGGLVQAGGSLRLSCAASGFTFRRNAMGWYRQAPGKERELVAVITSSARTNYADSVKGRFTISRDNAKNTVYLQMNSLKPEDTAVYYCNAYRYRQSSSDKYGYWGQGTQVTVSS | high polyreactivity |
| QVQLVESGGGLVQAGGSLRLSCAASGSTFGWYAMGWYRQAPGIERELVATITSDSSTYYADSVKGRFTISRDNAKNTVYLQMNSLKPQDTAVYYCAATNYWIEYAPGYGLYSVEDDYWGQGTQVTVSS | low polyreactivity |
| QVQLVESGGGLVQAGGSLRLSCAASGFTFYIYVMGWYRQARGKERELVAAITWSGGRTYYADSVKGRFTISRDYAKNTVYLQMNSLKPEDTAVYYCAASYPGLSYHKYEYWGQGTQVTVSS | high polyreactivity |
| QVQLVYSGGGLVQAGGSLRLSCAASGSTFYRYAMGWYRQAPGKERELVATITRSGGSTYYADSVKGRFTISRDNAKNTVYLQMNRLKPEDTAVYYCAVRLWFYYNYWGQGTQVTVSS | low polyreactivity |
| QVQLVESGGGLVQAGGSLRLSCAASGRTFWYYTMGWYRQAPGKERELVAAISSGGRTNYADSVKGRFTISRDNAKNTVYLQMNSLKPEYTAVYYCATSRYYKYVERDYWGQGTQVTVSS | high polyreactivity |
| QVQLVESGGGLVQAGGSLRLSGAASGSTFGWYVMGWYRQAPGKERELVASITGSGGSTYYADSVKGRFTISRDHAKNTVYLQMNSLNPEDTAVYYCAAHTGWYDDWTHDSWGQGTQVTVSS | low polyreactivity |
| QVQLVESGGGLDQAGGSLRLSCAASGIIFVKYTMGWYRQAPGTERELVAAISRSGGSTYYADSVKGRFTISRDNAKNTVYLQMNSLKPEDTAVYYCNAVSRKVYPGPMDYWGQGTQVTVSS | high polyreactivity |
| QVQLVDSGGGLVQAGCSIRITCSATGITFVANTKGWYRQEPVKERELVDTITSSGGSTYYADSVKGRFTISRDNAKNSVYLQMNSLKPEDTAVFYCAASDLRYRGNYVYLPSEYWGQGSQVTVSS | low polyreactivity |
| QVQLVESGGGLVQAGGSLRLSCDASGLIFGPYTMGWYRQAPGKERELVAAISYGGVSTYYADSVKGRFTISRDNAKNTVYLQMNSLNPEDTAVYYCARGDSTRVIRPSAREYDYWGQGTQVTVSS | low polyreactivity |
| QVQLVESGGGLVQAGGSLRLSCAASGSTFTWYAMGWYRQAPGKERELVADISYGGGSTYYADSVKGRFTISRDNAKNTVYLQMNSLKPEDTAVYYCAADYRWYQRGNPMDYWGQGTQVNVSS | low polyreactivity |
| QVQLGESGGGLVQAGGSLRLSCAASGRIFRTNAMGWYRQAPGKERELVAAITFSGGGTYYADSVKGRFTISRDNAKNTVYLQMNSLKPEDTAVYYCATDWYYEYYDWGQGTQVTVSS | low polyreactivity |
| QVQLVESGGGLVQAGGSLRLSCAASGIIFRYYAMGWYRQAPGKERELVAAISGTGSTKYADSVKGRFTISRDNAKNTVYLQMNSLKPEDTAVYYCNPRKRYARYGGSGYDYWGQGTQVTVSS | high polyreactivity |
| QVQLVVSGGGLVQAGGSLRLSCAASGIIFVQYTMGWYRQAPGQERELDAAITRGGNTYYADSVKGRFTISRDNAKNTVYLQMNSLKPEATAVYYCNKAYWYANLRYRTGVKLQFYYWGQGTQVNVSS | high polyreactivity |
| QVQLVESGGGLVQAGGSLRLSCAASGRSLRYYAMGWYRQAPGKERELVAVITRDGSTYYADSVKGRFTIPRDNAKNTVYLQMNSLKPEDTAVSYCVYGLTYRSFYYWGQGTQVTVSS | high polyreactivity |
| QVQLVESGGGIVQAGGSLRLSCAASGSTFVNYTMGWYRQAPGKERELVATITWSGDSTYYADSVKGRFTISRDNAKNTVYLQMNSVKPEDTAVYYCAGAPLETYYYWGQGTQVTVSS | low polyreactivity |
